In paper PMC8121907 one finds stoichiometry N data, which are given here for two substances.

The stoichiometry N is the number of molecules, sites or subunits per partner or assembly.

Test [1] deals with Vip3Bc1 (wild type, full length, unprocessed) (Bacillus thuringiensis). As to the kind of experiment: SEC; Superose 6 increase 10/300 GL, 25 mM TrisHCl pH 7.5, 150 mM NaCl; undigested Vip3Bc1 loaded at 1 mg/mL. Background: SEC sorts molecules by how far they enter the pores of the column.
Test [2] shares this target. The test can be described thus: cryo-EM structure; single particle cryoEM of undigested Vip3Bc1, C2 symmetry applied, global resolution 3.9 Å.
Test [3] deals with activated Vip3Bc1 (Vip3Bc1^act), trypsin-digested Vip3Bc1 (Bacillus thuringiensis). The test can be described thus: cryo-EM structure; single particle cryoEM of trypsin-digested Vip3Bc1^act, tilted collection, C4 symmetry applied, global resolution 4.8 Å; model built by homology.

As to “Vip3Bc1 (wild type, full length, unprocessed) (natural protein)”, the stoichiometry N in test [1] and in test [2] was 4 throughout. On to “activated Vip3Bc1 (Vip3Bc1^act), trypsin-digested Vip3Bc1 (complex)”, for which the stoichiometry N in test [3] was 4.
